According to patent US20050262592:

Assays:
[1] = biological target: T1, duckweed-produced human microplasminogen
T1 chain: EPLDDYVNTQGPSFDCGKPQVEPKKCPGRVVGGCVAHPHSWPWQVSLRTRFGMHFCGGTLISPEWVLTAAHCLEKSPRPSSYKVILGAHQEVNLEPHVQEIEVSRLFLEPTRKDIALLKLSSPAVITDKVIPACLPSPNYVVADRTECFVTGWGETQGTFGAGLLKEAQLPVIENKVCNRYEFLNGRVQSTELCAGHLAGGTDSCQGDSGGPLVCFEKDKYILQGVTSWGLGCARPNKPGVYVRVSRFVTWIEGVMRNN

streptokinase, P00779 = biological target: T2, streptokinase, P00779
T2 chain: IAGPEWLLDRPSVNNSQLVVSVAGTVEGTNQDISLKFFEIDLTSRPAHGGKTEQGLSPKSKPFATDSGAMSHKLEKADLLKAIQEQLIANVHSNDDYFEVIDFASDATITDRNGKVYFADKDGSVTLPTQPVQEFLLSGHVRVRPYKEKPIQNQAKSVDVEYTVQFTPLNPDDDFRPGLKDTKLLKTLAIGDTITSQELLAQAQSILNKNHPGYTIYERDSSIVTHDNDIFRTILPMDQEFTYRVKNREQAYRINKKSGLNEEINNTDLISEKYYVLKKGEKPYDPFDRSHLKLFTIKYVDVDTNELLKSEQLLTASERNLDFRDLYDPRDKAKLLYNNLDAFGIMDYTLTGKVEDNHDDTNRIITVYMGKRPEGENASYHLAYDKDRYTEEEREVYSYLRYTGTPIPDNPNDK

B1: tissue plasminogen activator (protein)
chain: SYQVICRDEKTQMIYQQHQSWLRPVLRSNRVEYCWCNSGRAQCHSVPVKSCSEPRCFNGGTCQQALYFSDFVCQCPEGFAGKCCEIDTRATCYEDQGISYRGTWSTAESGAECTNWNSSALAQKPYSGRRPDAIRLGLGNHNYCRNPDRDSKPWCYVFKAGKYSSEFCSTPACSEGNSDCYFGNGSAYRGTHSLTESGASCLPWNSMILIGKVYTAQNPSAQALGLGKHNYCRNPDGDAKPWCHVLKNRRLTWEYCDVPSCSTCGLRQYSQPQFRIKGGLFADIASHPWQAAIFAKHRRSPGERFLCGGILISSCWILSAAHCFQERFPPHHLTVILGRTYRVVPGEEEQKFEVEKYIVHKEFDDDTYDNDIALLQLKSDSSRCAQESSVVRTVCLPPADLQLPDWTECELSGYGKHEALSPFYSERLKEAHVRLYPSSRCTSQHLLNRTVTDNMLCAGDTRSGGPQANLHDACQGDSGGPLVCLNDGRMTLVGIISWGLGCGQKDVPGVYTKVTNYLDWIRDNMRP
For B1, the “Western blot: production of the B chain of plasmin” value [1] was “Western blot analysis confirmed the production of the B chain of plasmin following activation of duckweed-produced microplasminogen with either urokinase or tPA”.

B2: duckweed-produced human plasminogen (protein)
chain: KVYLSECKTGNGKNYRGTMSKTKNGITCQKWSSTSPHRPRFSPATHPSEGLEENYCRNPDNDPQGPWCYTTDPEKRYDYCDILECEEECMHCSGENYDGKISKTMSGLECQAWDSQSPHAHGYIPSKFPNKNLKKNYCRNPDRELRPWCFTTDPNKRWELCDIPRCTTPPPSSGPTYQCLKGTGENYRGNVAVTVSGHTCQHWSAQTPHTHNRTPENFPCKNLDENYCRNPDGKRAPWCHTTNSQVRWEYCKIPSCDSSPVSTEQLAPTAPPELTPVVQDCYHGDGQSYRGTSSTTTTGKKCQSWSSMTPHRHQKTPENYPNAGLTMNYCRNPDADKGPWCFTTDPSVRWEYCNLKKCSGTEASVVAPPPVVLLPDVETPSEEDCMFGNGKGYRGKRATTVTGTPCQDWAAQEPHRHSIFTPETNPRAGLEKNYCRNPDGDVGGPWCYTTNPRKLYDYCDVPQCAAPSFDCGKPQVEPKKCPGRVVGGCVAHPHSWPWQVSLRTRFGMHFCGGTLISPEWVLTAAHCLEKSPRPSSYKVILGAHQEVNLEPHVQEIEVSRLFLEPTRKDIALLKLSSPAVITDKVIPACLPSPNYVVADRTECFVTGWGETQGTFGAGLLKEAQLPVIENKVCNRYEFLNGRVQSTELCAGHLAGGTDSCQGDSGGPLVCFEKDKYILQGVTSWGLGCARPNKPGVYVRVSRFVTWIEGVMRNN
In the case of B2, the “cleavage of the chromogenic substrate Glu-Phe-Lys-pNA at 405 nm” value (streptokinase, P00779) is reported as “For each of the seven transgenic lines tested, the activity level was closely correlated with the protein expression levels as determined by ELISA” and the “streptokinase activity assay (cleavage of a chromogenic substrate, Coamatic plasminogen kit)” value (streptokinase, P00779) is reported as “Activation with streptokinase also produced activated plasminogen”.

B3: duckweed-produced human microplasminogen (protein)
chain: EPLDDYVNTQGPSFDCGKPQVEPKKCPGRVVGGCVAHPHSWPWQVSLRTRFGMHFCGGTLISPEWVLTAAHCLEKSPRPSSYKVILGAHQEVNLEPHVQEIEVSRLFLEPTRKDIALLKLSSPAVITDKVIPACLPSPNYVVADRTECFVTGWGETQGTFGAGLLKEAQLPVIENKVCNRYEFLNGRVQSTELCAGHLAGGTDSCQGDSGGPLVCFEKDKYILQGVTSWGLGCARPNKPGVYVRVSRFVTWIEGVMRNN
With B3 the “activity following activation by streptokinase (chromogenic substrate assay as for plasminogen)” value (streptokinase, P00779) was “The duckweed-produced microplasminogen showed some level of activity in the absence of streptokinase, and a significant increase in activity following activation by streptokinase”.
